Test results taken from article PMC5898713.

Key:
[1] = target: NepR wild-type, T25 fusion; assay: BACTH β-galactosidase assay; details: Overnight cultures containing 0.5 mM IPTG and antibiotics for selection, 30°C; three biological replicates; parent: est. 1500; read off a plot
[2] = target: PhyT (formerly PhyP), T25 fusion; assay: BACTH β-galactosidase assay; details: Overnight cultures containing 0.5 mM IPTG and antibiotics for selection, 30°C; three biological replicates; parent: est. 3000; read off a plot

Substance	response [1]	response [2]
PhyR wild-type, T18 fusion D194A	300 Miller units	1100 Miller units
PhyR wild-type, T18 fusion D194A; E235A	6900 Miller units	780 Miller units
PhyR wild-type, T18 fusion E235A	7100 Miller units	3100 Miller units
